# In patent publication US20230295298A1 (PRECISION BIOLOGICS, published 2023):
# Residue numbers refer to the chain shown, from its start.
# T1: human A33 antigen, full length, on cells (human, UniProt Q99795 22-319)
# T1 construct: CHO cells transfected with full length A33 cDNA (A33-CHO), or endogenous antigen of LS174T (colon) and AsPC-1 (pancreatic) tumour cells; The cell line is named under assay; also called A33-CHO; A33 antigen on LS174T cells
# T1 sequence: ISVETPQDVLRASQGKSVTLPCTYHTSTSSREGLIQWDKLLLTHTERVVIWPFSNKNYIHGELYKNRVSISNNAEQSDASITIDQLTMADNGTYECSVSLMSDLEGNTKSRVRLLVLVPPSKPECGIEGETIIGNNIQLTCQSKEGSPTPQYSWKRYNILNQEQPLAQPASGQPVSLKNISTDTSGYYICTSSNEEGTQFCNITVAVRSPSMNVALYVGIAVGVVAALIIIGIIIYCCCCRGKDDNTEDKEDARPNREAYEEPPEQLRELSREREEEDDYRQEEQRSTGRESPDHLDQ
# T2: human recombinant A33 antigen (human, UniProt Q99795 22-235)
# T2 construct: also called rH-GPA33; rHGPA33
# T2 sequence: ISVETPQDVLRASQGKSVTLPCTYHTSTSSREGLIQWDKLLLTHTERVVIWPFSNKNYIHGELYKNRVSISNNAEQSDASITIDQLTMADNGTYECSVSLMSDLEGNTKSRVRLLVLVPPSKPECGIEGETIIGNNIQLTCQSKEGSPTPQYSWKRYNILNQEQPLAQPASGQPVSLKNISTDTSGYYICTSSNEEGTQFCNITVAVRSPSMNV
# B1: humanized 31.1 antibody #5 (abb31.1-HC + cdr31.1-LC) (antibody, human IgG1, kappa, V domains shown)
# VH: QIQLVQSGAEVKKPGASVKVSCKASGYTFTNYGMNWVRQAPGKGLEWMGWINTYTGEPTYAQKFQGRVTFTLDTSISTAYMELSRLRSDDTAVYFCARAYYGKYFDYWGQGTTVTVSS
# VL: SIVMTQSPSSLSASVGDRVTITCKASQSVSNDVAWYQQKPGQSPKLLIYYASNRYTGVPDRFSGSGYGTDFTLTISSLQPEDFAVYFCQQDYSSPLTFGAGTKLEIKR
# notes: Full heavy and light chains; supernatant in the first screen, Protein A/G purified in the second round; also called Sample ID 5; abb-HC + cdr-LC
# B2: humanized 31.1 antibody #11 (sdr31.1-HC + sdr31.1-LC) (antibody, human IgG1, kappa, V domains shown)
# VH: B1 VH with T53P
# VL: B1 VL with V3Q, K24R, V29I, V33L
# notes: Full heavy and light chains; supernatant in the first screen, Protein A/G purified in the third round; used as negative control; also called Sample ID 11; sdr-HC + sdr-LC
# B3: humanized 31.1 antibody #6 (abb31.1-HC + abb31.1-LC) (antibody, human IgG1, kappa, V domains shown)
# VH: B1 VH
# VL: B1 VL with V3Q, K24R, T56S
# notes: Full heavy and light chains; supernatant in the first screen, Protein A/G purified in the second round; also called Sample ID 6; abb-HC + abb-LC
# Tests used:
# [1] = target: T1, human A33 antigen, full length, on cells; experiment: IHC on LS174T FFPE sections, 20ug/mL, repeat result
# [2] = target: T2, human recombinant A33 antigen; experiment: rH-GPA33 binding ELISA
# [3] = target: T1, human A33 antigen, full length, on cells; experiment: IHC on LS174T FFPE sections, 20ug/mL, first result
# [4] = target: T2, human recombinant A33 antigen; experiment: rH-GPA33 binding ELISA, 2ug/mL of 31.1, supernatant
# Method: (§1) Human IgG ELISA, rH-GPA33 Binding ELISA, cell Flow Cytometry (LS174T or AsPAC1), IHC staining (LS174T FFPE, tumor FFPE and Frozen tumor sections) and Coomassie blue staining of SDS-PAGE gel were used for the screening. Antibody in the culture supernatant was purified by Protein A/G purification in the column and dissolved in PBS buffer after three times dialysis. Aliquots of the antibodies were kept at -20° C. for storage.
# (§2) Each combination was produced by transient transfection by using Expi293 Expression System Kit (Gibco, cat# A14635). […] Methods of Human IgG ELISA, rH-GPA33 Binding ELISA, LS174T cell Flow Cytometry, IHC staining on LS174T FFPE sections and Coomassie blue staining of SDS-PAGE gel were used for the initial screening.
# [5] = target: T1, human A33 antigen, full length, on cells; experiment: flow cytometry, AsPC-1 cells (second AsPC-1 column)
# [6] = target: T1, human A33 antigen, full length, on cells; experiment: flow cytometry, LS-174T cells
# [7] = target: T1, human A33 antigen, full length, on cells; experiment: flow cytometry, AsPC-1 cells (first AsPC-1 column)
# [8] = target: T1, human A33 antigen, full length, on cells; experiment: flow cytometry on LS174T cells, 0.37ug/mL
# Method: as §1, §2
# [9] = target: T1, human A33 antigen, full length, on cells; experiment: flow cytometry, AsPC-1 cells, 6.9 ng/ml, experiment 1
# [10] = target: T1, human A33 antigen, full length, on cells; experiment: flow cytometry, AsPC-1 cells, 2.3 ng/ml, experiment 2
# [11] = target: T1, human A33 antigen, full length, on cells; experiment: flow cytometry, AsPC-1 cells, 20.6 ng/ml, experiment 1
# [12] = target: T2, human recombinant A33 antigen; experiment: rH-GPA33 binding ELISA, first round supernatant
# [13] = target: T1, human A33 antigen, full length, on cells; experiment: flow cytometry, AsPC-1 cells, 20.6 ng/ml, experiment 2
# [14] = target: T1, human A33 antigen, full length, on cells; experiment: flow cytometry, AsPC-1 cells, 61.7 ng/ml, experiment 1
# [15] = target: T1, human A33 antigen, full length, on cells; experiment: flow cytometry, AsPC-1 cells, 6.9 ng/ml, experiment 2
# [16] = target: T1, human A33 antigen, full length, on cells; experiment: IHC on LS174T FFPE sections, 20ug/mL
# Method: as §1, §2
# [17] = target: T1, human A33 antigen, full length, on cells; experiment: flow cytometry, AsPC-1 cells, 61.7 ng/ml, experiment 2
# [18] = target: T1, human A33 antigen, full length, on cells; experiment: flow cytometry, AsPC-1 cells, 185.2 ng/ml, experiment 2
# [19] = target: T1, human A33 antigen, full length, on cells; experiment: flow cytometry, AsPC-1 cells, 5000 ng/ml, experiment 2
# [20] = target: T1, human A33 antigen, full length, on cells; experiment: flow cytometry, AsPC-1 cells, 2.3 ng/ml, experiment 1
# [21] = target: T1, human A33 antigen, full length, on cells; experiment: flow cytometry, AsPC-1 cells, 0 ng/ml (background, no antibody), experiment 2
# [22] = target: T1, human A33 antigen, full length, on cells; experiment: flow cytometry, AsPC-1 cells, 1666.7 ng/ml, experiment 2
# [23] = target: T1, human A33 antigen, full length, on cells; experiment: flow cytometry, AsPC-1 cells, 0 ng/ml (background, no antibody), experiment 1
# [24] = target: T1, human A33 antigen, full length, on cells; experiment: flow cytometry, AsPC-1 cells, 185.2 ng/ml, experiment 1
# [25] = target: T1, human A33 antigen, full length, on cells; experiment: flow cytometry, AsPC-1 cells, 1666.7 ng/ml, experiment 1
# [26] = target: T1, human A33 antigen, full length, on cells; experiment: flow cytometry, AsPC-1 cells, 5000 ng/ml, experiment 1
# [27] = target: T1, human A33 antigen, full length, on cells; experiment: flow cytometry, AsPC-1 cells, 555.6 ng/ml, experiment 1
# [28] = target: T1, human A33 antigen, full length, on cells; experiment: flow cytometry, AsPC-1 cells, 555.6 ng/ml, experiment 2
binder,measurement,setting,value
B1,H-Score of IHC,[1],100 H-Score
same,EC50,[2],0.396 µg/mL
same,H-Score of IHC,[3],240 H-Score
same,OD Value of rH-GPA33 Binding ELISA,[4],0.85 OD
same,EC50,[5],0.122 µg/mL
same,EC50,[6],0.0625 µg/mL
same,EC50,[7],0.235 µg/mL
same,MFI,[8],804 MFI
B2,MFI,[9],3.6 MFI
same,MFI,[10],3.5 MFI
same,MFI,[11],4 MFI
same,binding result,[12],no binding
same,OD Value of rH-GPA33 Binding ELISA,[4],0.06 OD
same,MFI,[13],4 MFI
same,MFI,[14],5.9 MFI
same,MFI,[15],3.6 MFI
same,H-Score of IHC,[16],160 H-Score
same,MFI,[17],5.3 MFI
same,MFI,[18],8.2 MFI
same,MFI,[19],117 MFI
same,MFI,[20],3.4 MFI
same,MFI,[21],3.6 MFI
same,MFI,[22],39 MFI
same,MFI,[23],3.6 MFI
same,MFI,[24],8.2 MFI
same,MFI,[25],38.9 MFI
same,MFI,[26],117 MFI
same,MFI,[27],16.2 MFI
same,MFI,[28],16.6 MFI
same,MFI,[8],5.6 MFI
B3,H-Score of IHC,[1],240 H-Score
same,EC50,[2],1.23 µg/mL
same,H-Score of IHC,[3],230 H-Score
same,OD Value of rH-GPA33 Binding ELISA,[4],0.74 OD
same,EC50,[5],0.152 µg/mL
same,EC50,[6],0.0809 µg/mL
same,EC50,[7],0.276 µg/mL
same,MFI,[8],628 MFI
